Laboratory results reported in doi:10.1101/2021.11.24.469940 (bioRxiv, 2021).

Target: the molecule itself
Experiment: cryo-EM structure

B1: mature wild-type S. cerevisiae PIM1 lacking the mitochondrial targeting sequence (Met182 – Asp1133) (enzyme, UniProt P36775 182-1133, looked up)
chain: MLALPIARRPLFPGFYKAVVISDERVMKAIKEMLDRQQPYIGAFMLKNSEEDTDVITDKNDVYDVGVLAQITSAFPSKDEKTGTETMTALLYPHRRIKIDELFPPNEEKEKSKEQAKDTDTETTVVEDANNPEDQESTSPATPKLEDIVVERIPDSELQHHKRVEATEEESEELDDIQEGEDINPTEFLKNYNVSLVNVLNLEDEPFDRKSPVINALTSEILKVFKEISQLNTMFREQIATFSASIQSATTNIFEEPARLADFAAAVSAGEEDELQDILSSLNIEHRLEKSLLVLKKELMNAELQNKISKDVETKIQKRQREYYLMEQLKGIKRELGIDDGRDKLIDTYKERIKSLKLPDSVQKIFDDEITKLSTLETSMSEFGVIRNYLDWLTSIPWGKHSKEQYSIPRAKKILDEDHYGMVDVKDRILEFIAVGKLLGKVDGKIICFVGPPGVGKTSIGKSIARALNRKFFRFSVGGMTDVAEIKGHRRTYIGALPGRVVQALKKCQTQNPLILIDEIDKIGHGGIHGDPSAALLEVLDPEQNNSFLDNYLDIPIDLSKVLFVCTANSLETIPRPLLDRMEVIELTGYVAEDKVKIAEQYLVPSAKKSAGLENSHVDMTEDAITALMKYYCRESGVRNLKKHIEKIYRKAALQVVKKLSIEDSPTSSADSKPKESVSSEEKAENNAKSSSEKTKDNNSEKTSDDIEALKTSEKINVSISQKNLKDYVGPPVYTTDRLYETTPPGVVMGLAWTNMGGCSLYVESVLEQPLHNCKHPTFERTGQLGDVMKESSRLAYSFAKMYLAQKFPENRFFEKASIHLHCPEGATPKDGPSAGVTMATSFLSLALNKSIDPTVAMTGELTLTGKVLRIGGLREKAVAAKRSGAKTIIFPKDNLNDWEELPDNVKEGLEPLAADWYNDIFQKLFKDVNTKEGNSVWKAEFEILDAKKEKD
- stoichiometry N: 6
